Reference: paper PMC4777826, “Crystal Structure of the CTP1L Endolysin Reveals How Its Activity Is Regulated by a Secondary Translation Product*^([image sbox.jpg])” (The Journal of Biological Chemistry, 2015)

How the values were obtained:
[1] = target: CBDHis, CTP1L(195-274) with a C-terminal His tag (bacteriophage ΦCTP1); assay: native MS; nano-ESI of each purified sample by itself (wild-type gene products, CBDHis, RBSKO mutants), 150 mM ammonium acetate pH 7.4
[2] = target: CTP1L endolysin K190S/G191S, ribosomal binding site knock-out (RBSKO) (bacteriophage ΦCTP1); assay: native MS; CBDHis titrated to 10 μM full-length CTP1L RBSKO at molar ratios 1:1, 1:2, 1:3 and 1:6 (full-length:CBDHis), 150 mM ammonium acetate pH 7.4; ratios of species from simulated peaks, three measurements
[3] = target: CD27L endolysin RBSKO mutant (E181S/G182S) (bacteriophage (targets Clostridium difficile)) (UniProt B6SBV8); assay: native MS; nano-ESI of each purified sample by itself (wild-type gene products, CBDHis, RBSKO mutants), 150 mM ammonium acetate pH 7.4
[4] = target: CTP1L endolysin, full-length (wild type) (bacteriophage ΦCTP1); assay: as above
[5] = target: truncated C-terminal cell wall binding domain of CTP1L (secondary translation product) (bacteriophage ΦCTP1); assay: as above
[6] = target: CTP1L endolysin, full-length (wild type) (bacteriophage ΦCTP1); assay: native MS; nano-ESI of the sample made from the codon-optimised CTP1L gene with the silent C→G back mutation (less truncated CBD made), 150 mM ammonium acetate pH 7.4
[7] = target: the molecule itself; assay: native MS; nano-ESI of each purified sample by itself (wild-type gene products, CBDHis, RBSKO mutants), 150 mM ammonium acetate pH 7.4

CBDHis, CTP1L(195-274) with a C-terminal His tag (domain or fragment)
stoichiometry N [1]: 2
ratio of species, 1:1 heterodimer (full-length:CBDHis 1:1) (ratio (total 1.0)) [2]: 0.26
ratio of species, 1:1 heterodimer (full-length:CBDHis 1:2) (ratio (total 1.0)) [2]: 0.29
ratio of species, 1:1 heterodimer (full-length:CBDHis 1:3) (ratio (total 1.0)) [2]: 0.27
ratio of species, 1:1 heterodimer (full-length:CBDHis 1:6) (ratio (total 1.0)) [2]: 0.31
ratio of species, 1 FLCTP1L: 3 CBDHis heterotetramer (full-length:CBDHis 1:1) (ratio (total 1.0)) [2]: 0.09
ratio of species, 1 FLCTP1L: 3 CBDHis heterotetramer (full-length:CBDHis 1:2) (ratio (total 1.0)) [2]: 0.19
ratio of species, 1 FLCTP1L: 3 CBDHis heterotetramer (full-length:CBDHis 1:3) (ratio (total 1.0)) [2]: 0.27
ratio of species, 1 FLCTP1L: 3 CBDHis heterotetramer (full-length:CBDHis 1:6) (ratio (total 1.0)) [2]: 0.38
ratio of species, 2 FLCTP1L: 2 CBDHis heterotetramer (full-length:CBDHis 1:1) (ratio (total 1.0)) [2]: 0.3
ratio of species, 2 FLCTP1L: 2 CBDHis heterotetramer (full-length:CBDHis 1:2) (ratio (total 1.0)) [2]: 0.32
ratio of species, 2 FLCTP1L: 2 CBDHis heterotetramer (full-length:CBDHis 1:3) (ratio (total 1.0)) [2]: 0.26
ratio of species, 2 FLCTP1L: 2 CBDHis heterotetramer (full-length:CBDHis 1:6) (ratio (total 1.0)) [2]: 0.17
ratio of species, free FLCTP1L monomer (full-length:CBDHis 1:1) (ratio (total 1.0)) [2]: 0.4
ratio of species, free FLCTP1L monomer (full-length:CBDHis 1:2) (ratio (total 1.0)) [2]: 0.2
ratio of species, free FLCTP1L monomer (full-length:CBDHis 1:3) (ratio (total 1.0)) [2]: 0.2
ratio of species, free FLCTP1L monomer (full-length:CBDHis 1:6) (ratio (total 1.0)) [2]: 0.14

CD27L endolysin RBSKO mutant (E181S/G182S) (from UniProt B6SBV8 1-270) (enzyme)
stoichiometry N [3]: 2

truncated C-terminal cell wall binding domain of CTP1L (secondary translation product)
ratio of species, free FLCTP1L monomer (wild-type sample) (ratio (total 1.0)) [4]: 0.03

truncated C-terminal cell wall binding domain of CTP1L (secondary translation product) (domain or fragment)
ratio of species, 1:1 heterodimer (wild-type sample) (ratio (total 1.0)) [4]: 0.12
ratio of species, 1 FLCTP1L: 3 CBD heterotetramer (wild-type sample) (ratio (total 1.0)) [4]: 0.14
ratio of species, 2 FLCTP1L: 2 CBD heterotetramer (wild-type sample) (ratio (total 1.0)) [4]: 0.72
stoichiometry N [5]: 4
ratio of species, 1:1 heterodimer (C→G sample) (ratio (total 1.0)) [6]: 0.09
ratio of species, 2 FLCTP1L: 2 CBD heterotetramer (C→G sample) (ratio (total 1.0)) [6]: 0.62
ratio of species, free FLCTP1L monomer (C→G sample) (ratio (total 1.0)) [6]: 0.28

B1: CD27L endolysin, full-length (wild type) (enzyme, UniProt B6SBV8 1-270, looked up)
chain: MKICITVGHSILKSGACTSADGVVNEYQYNKSLAPVLADTFRKEGHKVDVIICPEKQFKTKNEEKSYKIPRVNSGGYDLLIELHLNASNGQGKGSEVLYYSNKGLEYATRICDKLGTVFKNRGAKLDKRLYILNSSKPTAVLIESFFCDNKEDYDKAKKLGHEGIAKLIVEGVLNKNINNEGVKQMYKHTIVYDGEVDKISATVVGWGYNDGKILICDIKDYVPGQTQNLYVVGGGACEKISSITKEKFIMIKGNDRFDTLYKALDFINR
notes: CD27L endolysin, a bacteriophage endolysin that targets Clostridium difficile; The wild-type sample also holds the truncated CBD; also called FLCD27L; source: E. coli BL21(DE3), pET15b, purified (Ni-NTA)
stoichiometry N [7]: 2
